As usually defined, the EC50 is the concentration giving half of the maximal effect. The low end stands for greater potency, the high end for weaker potency. Broadly, the IC50 is the concentration that gives 50% inhibition. A higher IC50 goes with weaker potency in that assay.

In assay [1] the target is T1, SARS-CoV-2刺突S1-His重组蛋白(Sino公司，货号:40591-V08H) (SARS-CoV-2, UniProt P0DTC2 16-685).
T1 construct: domain: S1; also called S1蛋白; 刺突蛋白S1
As to the kind of experiment: ELISA; S1-His coated at 1.0 μg/mL, goat anti-human IgG-HRP detection. (In general: An ELISA detects its analyte on a solid surface through an enzyme-linked reagent.)

Assay [2] addresses SARS-CoV-2刺突S1亚基蛋白(Sino公司，货号:40591-V02H) (SARS-CoV-2, UniProt P0DTC2 16-685).

B1: 抗SARS-CoV-2的单克隆抗体2B11 (antibody, V domains shown)
VH: EVQLVESGGGLVQPGGSLRLSCAASEITVSSNYMNWVRQAPGKGLEWVSVIYSGGTTYYADSVKGRFTISRDNSENTLYLQMNSLRAEDTAVYYCARDLMEVGGMDVWGQGTTVTVSS
VL: LPVLTQPPSASGTPGQRVTISCSGSSSNVENDNVNWFQQQVPGSTPKLVIYNDRLRPSGVPDRFSGSKSGTSAYLAISGLQSEDEADYYCVAWDASLQSYVFGTGTKVTVL
notes: also called 2B11抗体; 人源抗SARS-CoV-2抗体2B11
Regarding B1, in assay [1], a half-maximal response (EC50) required 0.051 nM. The molecule further came in with an IC50 in assay [2] of 2.79 nM.
